Experimental data: patent US20200397886A1

Legend:
[1] = target: DS-Cav1-foldon-I53-50 nanostructure (respiratory syncytial virus (RSV)); test: SPR after heat stress of the antigen (70 °C, 1 h); 50 nM DS-Cav1
[2] = target: DS-Cav1-foldon-I53-50A (respiratory syncytial virus (RSV)); test: as above

Substance: D25 monoclonal antibody
- binding signal retained after 1 hour at 70 °C [1]: 80%
- binding signal retained after 1 hour at 70 °C [2]: 50%
